Measured values as given in article PMC4404499 (The Biochemical journal, 2014).

Legend:
Assay in all cases: pull-down
GST-tagged TRIM3 N48A = target: T1, GST-tagged TRIM3 N48A (mouse, UniProt Q9R1R2 1-744, N48A)
T1 sequence (looked up): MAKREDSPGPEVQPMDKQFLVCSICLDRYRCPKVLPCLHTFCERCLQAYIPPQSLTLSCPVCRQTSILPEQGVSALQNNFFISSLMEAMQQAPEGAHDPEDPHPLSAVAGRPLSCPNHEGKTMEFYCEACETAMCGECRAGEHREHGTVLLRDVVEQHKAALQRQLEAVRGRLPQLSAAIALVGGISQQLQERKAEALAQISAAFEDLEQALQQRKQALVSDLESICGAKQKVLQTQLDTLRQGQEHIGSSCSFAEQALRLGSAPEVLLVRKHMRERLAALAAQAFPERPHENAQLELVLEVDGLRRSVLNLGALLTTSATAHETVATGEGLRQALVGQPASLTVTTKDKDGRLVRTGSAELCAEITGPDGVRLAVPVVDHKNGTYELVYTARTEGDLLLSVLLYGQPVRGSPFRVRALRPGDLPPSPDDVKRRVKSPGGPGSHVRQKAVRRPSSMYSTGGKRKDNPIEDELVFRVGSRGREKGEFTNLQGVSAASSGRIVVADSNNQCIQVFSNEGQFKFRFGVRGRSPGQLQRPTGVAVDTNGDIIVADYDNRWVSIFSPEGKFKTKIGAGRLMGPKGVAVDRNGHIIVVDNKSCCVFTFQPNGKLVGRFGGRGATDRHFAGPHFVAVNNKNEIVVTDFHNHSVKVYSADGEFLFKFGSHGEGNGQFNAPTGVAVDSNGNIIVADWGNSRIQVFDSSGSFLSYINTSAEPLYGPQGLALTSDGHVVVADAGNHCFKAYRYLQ

GST-tagged TRIM3 Y49A = target: T2, GST-tagged TRIM3 Y49A (mouse, UniProt Q9R1R2 1-744, Y49A)
T2 sequence (looked up): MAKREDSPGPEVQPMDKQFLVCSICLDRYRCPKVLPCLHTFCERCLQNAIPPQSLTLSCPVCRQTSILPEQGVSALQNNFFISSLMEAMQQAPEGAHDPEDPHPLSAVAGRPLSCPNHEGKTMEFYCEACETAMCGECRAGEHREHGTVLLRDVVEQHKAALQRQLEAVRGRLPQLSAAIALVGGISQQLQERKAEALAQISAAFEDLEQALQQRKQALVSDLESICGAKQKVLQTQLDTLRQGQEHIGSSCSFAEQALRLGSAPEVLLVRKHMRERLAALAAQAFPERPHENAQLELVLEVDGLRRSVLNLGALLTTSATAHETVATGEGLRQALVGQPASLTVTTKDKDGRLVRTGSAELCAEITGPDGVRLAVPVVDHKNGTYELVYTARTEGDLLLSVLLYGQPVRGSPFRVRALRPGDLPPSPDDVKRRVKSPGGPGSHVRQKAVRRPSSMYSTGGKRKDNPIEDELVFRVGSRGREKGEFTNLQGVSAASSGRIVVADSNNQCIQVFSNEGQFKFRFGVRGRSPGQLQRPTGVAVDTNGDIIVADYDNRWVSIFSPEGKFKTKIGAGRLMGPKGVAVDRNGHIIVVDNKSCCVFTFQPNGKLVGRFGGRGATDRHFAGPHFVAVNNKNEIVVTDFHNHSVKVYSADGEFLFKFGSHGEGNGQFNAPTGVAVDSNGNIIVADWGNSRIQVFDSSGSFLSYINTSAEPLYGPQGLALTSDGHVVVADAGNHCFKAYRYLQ

GST-tagged TRIM3 L55A = target: T3, GST-tagged TRIM3 L55A (mouse, UniProt Q9R1R2 1-744, L55A)
T3 sequence (looked up): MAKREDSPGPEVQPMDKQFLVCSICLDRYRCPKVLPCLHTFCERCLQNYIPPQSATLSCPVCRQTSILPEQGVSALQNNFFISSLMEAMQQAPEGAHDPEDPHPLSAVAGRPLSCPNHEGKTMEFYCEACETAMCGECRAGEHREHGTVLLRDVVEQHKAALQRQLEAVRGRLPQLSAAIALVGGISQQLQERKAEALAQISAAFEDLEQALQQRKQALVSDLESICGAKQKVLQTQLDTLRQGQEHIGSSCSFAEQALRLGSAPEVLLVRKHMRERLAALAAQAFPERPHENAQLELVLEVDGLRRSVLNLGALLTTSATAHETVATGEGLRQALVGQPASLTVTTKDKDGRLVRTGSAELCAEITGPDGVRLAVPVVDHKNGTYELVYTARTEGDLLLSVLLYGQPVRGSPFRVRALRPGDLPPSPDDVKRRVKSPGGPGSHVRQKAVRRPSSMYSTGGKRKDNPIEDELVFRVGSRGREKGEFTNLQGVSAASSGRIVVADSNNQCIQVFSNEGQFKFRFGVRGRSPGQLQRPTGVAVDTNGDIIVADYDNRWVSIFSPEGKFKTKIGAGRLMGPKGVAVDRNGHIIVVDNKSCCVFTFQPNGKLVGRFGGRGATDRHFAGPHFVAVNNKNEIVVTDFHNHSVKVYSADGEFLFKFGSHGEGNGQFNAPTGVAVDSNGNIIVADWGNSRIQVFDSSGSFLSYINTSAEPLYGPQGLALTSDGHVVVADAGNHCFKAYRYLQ

GST-tagged TRIM3 I50A = target: T4, GST-tagged TRIM3 I50A (mouse, UniProt Q9R1R2 1-744, I50A)
T4 sequence (looked up): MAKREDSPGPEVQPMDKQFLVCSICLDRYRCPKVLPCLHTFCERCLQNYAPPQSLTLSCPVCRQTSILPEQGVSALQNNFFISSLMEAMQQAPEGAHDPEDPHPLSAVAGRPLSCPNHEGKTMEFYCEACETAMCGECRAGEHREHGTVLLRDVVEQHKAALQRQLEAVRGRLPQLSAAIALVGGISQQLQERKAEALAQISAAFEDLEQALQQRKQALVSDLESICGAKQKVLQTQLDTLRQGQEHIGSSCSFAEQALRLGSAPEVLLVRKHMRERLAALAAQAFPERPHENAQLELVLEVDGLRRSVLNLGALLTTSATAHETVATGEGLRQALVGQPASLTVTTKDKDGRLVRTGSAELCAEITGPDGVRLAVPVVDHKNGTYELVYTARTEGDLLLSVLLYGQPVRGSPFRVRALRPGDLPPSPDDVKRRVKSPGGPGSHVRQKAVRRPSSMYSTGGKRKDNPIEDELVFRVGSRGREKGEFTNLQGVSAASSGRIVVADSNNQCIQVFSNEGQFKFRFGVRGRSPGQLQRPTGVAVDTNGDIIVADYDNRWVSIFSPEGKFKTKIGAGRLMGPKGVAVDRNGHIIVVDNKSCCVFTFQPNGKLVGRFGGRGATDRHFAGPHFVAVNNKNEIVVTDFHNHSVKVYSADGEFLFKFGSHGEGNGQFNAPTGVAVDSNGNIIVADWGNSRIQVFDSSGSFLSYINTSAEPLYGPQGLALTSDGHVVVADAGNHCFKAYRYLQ

- binding result (GST-tagged TRIM3 N48A): binds
- binding result (GST-tagged TRIM3 Y49A): binds
- binding result (GST-tagged TRIM3 L55A): binds
- binding result (GST-tagged TRIM3 I50A): binds
B1: His-tagged p21 (wild-type) (natural protein, UniProt P39689 1-159, looked up)
chain: MSNPGDVRPVPHRSKVCRCLFGPVDSEQLRRDCDALMAGCLQEARERWNFDFVTETPLEGNFVWERVRSLGLPKVYLSPGSRSRDDLGGDKRPSTSSALLQGPAPEDHVALSLSCTLVSERPEDSPGGPGTSQGRKRRQTSLTDFYHSKRRLVFCKRKP
